This passage reports decrease in initial rate of [125I]-p97 transport across BBCEC monolayers with recombinant RAP (25 µg/ml) results from patent publication US20030129186A1.

This experiment addresses p97 receptor (melanotransferrin receptor, MTf-R) on bovine brain capillary endothelial cells (BBCECs) (bovine). Put plainly: cell-based or functional assay.

With “recombinant receptor-associated protein (RAP)”, the decrease in initial rate of [125I]-p97 transport across BBCEC monolayers with recombinant RAP (25 µg/ml) is greater than 50%.
